Test results as given in article PMC5847621 (2018).

Target: T1, VSV Gth, soluble form of the ectodomain of VSV glycoprotein G (residues 1-422) (Vesicular stomatitis virus (Mudd-Summer …, UniProt P0C2X0 17-438))
T1 chain: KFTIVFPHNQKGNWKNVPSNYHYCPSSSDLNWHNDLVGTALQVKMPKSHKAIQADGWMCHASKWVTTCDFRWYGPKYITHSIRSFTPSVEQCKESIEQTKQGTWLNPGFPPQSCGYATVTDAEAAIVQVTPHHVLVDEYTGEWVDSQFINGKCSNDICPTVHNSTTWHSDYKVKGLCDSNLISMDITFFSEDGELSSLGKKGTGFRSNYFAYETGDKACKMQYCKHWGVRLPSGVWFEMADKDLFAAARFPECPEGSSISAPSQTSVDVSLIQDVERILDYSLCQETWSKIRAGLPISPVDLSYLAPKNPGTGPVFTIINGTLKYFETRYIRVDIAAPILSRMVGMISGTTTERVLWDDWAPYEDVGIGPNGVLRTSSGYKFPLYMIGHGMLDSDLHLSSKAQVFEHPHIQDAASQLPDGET
Assay: ITC

B1: LDL-R CR3 domain, isolated (GST cleaved off) (domain or fragment)
chain: not shown
Kd: 3.75 µM
